Ends that are not written are not given here.
Columns and labels:
CTGF [1] = biological target: T1, CTGF (Mus musculus, UniProt P29268); test: Ex vivo NIR-II imaging of perfused brains after DGC injection; format: in vivo, APP/PS1 mice; details: 20 mg/kg i.v., saline perfusion, relative to 1 month
T1 construct: brain sections of the age-matched wild-type C57BL/6J mice were used as controls; from tissue; host or cells: brain of APP/PS1 transgenic and wild-type C57BL/6J mice (sections, living animal, perfused isolated brain)
T1 sequence (P29268 26-348): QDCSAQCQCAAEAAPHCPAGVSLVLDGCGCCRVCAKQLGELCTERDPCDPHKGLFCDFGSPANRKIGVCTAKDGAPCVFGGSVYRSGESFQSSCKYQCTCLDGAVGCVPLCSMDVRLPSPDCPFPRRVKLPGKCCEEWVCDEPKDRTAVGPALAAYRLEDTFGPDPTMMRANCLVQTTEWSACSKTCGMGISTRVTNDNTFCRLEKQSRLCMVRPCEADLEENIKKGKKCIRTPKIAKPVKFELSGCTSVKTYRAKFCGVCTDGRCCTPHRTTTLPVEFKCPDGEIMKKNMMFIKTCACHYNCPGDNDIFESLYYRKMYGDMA
Description: (§1) Mice were then perfused intracardially with saline and 4% PFA, and major organs (including the brain, heart, liver, spleen, lung, and kidney were isolated. The dissociated brains were performed NIR-II imaging ex vivo using the same method as in vivo imaging (n = 3). All isolated organs were also imaged by the NIR-II imaging system (λ ex = 808 nm, 1000 nm longpass (LP) filter (Edmund Optics)). And then, the brains were kept in 4% PFA overnight and embedded with paraffin. Sections with 5-μm thickness were cut and analyzed by immunostaining with antibodies to CTGF (dilution 1: 50, Abcam, Cat#ab6992), GFAP (dilution 1:100, Proteintech, Cat#16825-1-AP), CD31 (dilution 1:200, Beyotime, Cat#AF6408), Neun (dilution 1:300, abcam, Cat# ab177487), and Iba 1 (dilution 1:50, Beyotime, Cat# AF7143), respectively.

CTGF [2] = test: Quantitating CTGF in DGC-labelled cells by ICP-MS; format: cell-based
Description: After U87MG, SH-SY5Y, and CTX TNA2 cells were imaged by a laser confocal microscopy system, these cells labeled with DGC were quantitatively analyzed by an ICP-MS system (Thermo Elemental X7, USA). Each cell group in the glass vials was digested by adding 5 mL aqua regia (HCl: HNO3 = 3:1) overnight. Subsequently, the aqua regia was heated to evaporate to the last drop to be diluted by a mixture of 2% HNO3 and 1% HCl. A standard curve of Au was made to quantify the concentration of Au in different cells. ICP-MS was used to test the Au signal in triplicates.

U87MG cells = test: Cytotoxicity of DGC (CCK-8); format: cell-based, human; design: key to Cell viability: viability relative to control cells (control = 1); details: for Cell viability: 24 h, CCK-8, normalized to control
Description: U87MG, SH-SY5Y, and CTX TNA2 cells were seeded into 96-well plates at a density of 5 × 10^3 cells per well and were incubated at 37 °C for 24 h. […] Next, 10 µL of a colorimetric Cell Counting Kit (CCK-8) reagent diluted with 100 µL medium was added to each well, and incubated for 30 min, The absorbance at 450 nm was measured using a microplate reader (Molecular Devices, San Jose, CA, USA). The relative viability was normalized to control cells. The experiment was performed in triplicates.

[3] = Biodistribution of DGC in organs by ex vivo NIR-II imaging; design: species or system APP/PS1 and wild-type mice; details: ex vivo NIR-II observation of major organs
Description: as §1

Substance: DGC: CTGF-targeting peptide-coated gold nanocluster: one Au26 gold nanocluster coated by eight DAG cyclic peptides, NIR-II and red fluorescence (CDAGRKQKC; also: cyclic peptide, ring not given here, eight peptides on one Au26 nanocluster via Cys Au-S bonds)
- ex vivo NIR-II fluorescence (FL) intensity in brain (CTGF [1]; 1-month-old APP/PS1 mice, brain 1): 1
- ex vivo NIR-II fluorescence (FL) intensity in brain (CTGF [1]; 1-month-old APP/PS1 mice, brain 2): 1
- ex vivo NIR-II fluorescence (FL) intensity in brain (CTGF [1]; 1-month-old APP/PS1 mice, brain 3): 1
- ex vivo NIR-II fluorescence (FL) intensity in brain (CTGF [1]; 2-month-old APP/PS1 mice, brain 1): 1.473
- ex vivo NIR-II fluorescence (FL) intensity in brain (CTGF [1]; 2-month-old APP/PS1 mice, brain 2): 1.458
- ex vivo NIR-II fluorescence (FL) intensity in brain (CTGF [1]; 2-month-old APP/PS1 mice, brain 3): 1.501
- ex vivo NIR-II fluorescence (FL) intensity in brain (CTGF [1]; 3-month-old APP/PS1 mice, brain 1): 1.722
- ex vivo NIR-II fluorescence (FL) intensity in brain (CTGF [1]; 3-month-old APP/PS1 mice, brain 2): 1.714
- ex vivo NIR-II fluorescence (FL) intensity in brain (CTGF [1]; 3-month-old APP/PS1 mice, brain 3): 1.766
- ex vivo NIR-II fluorescence (FL) intensity in brain (CTGF [1]; 6-month-old APP/PS1 mice, brain 1): 2.766
- ex vivo NIR-II fluorescence (FL) intensity in brain (CTGF [1]; 6-month-old APP/PS1 mice, brain 2): 2.744
- ex vivo NIR-II fluorescence (FL) intensity in brain (CTGF [1]; 6-month-old APP/PS1 mice, brain 3): 2.849
- ex vivo NIR-II fluorescence (FL) intensity in brain (CTGF [1]; 9-month-old APP/PS1 mice, brain 1): 3.728
- ex vivo NIR-II fluorescence (FL) intensity in brain (CTGF [1]; 9-month-old APP/PS1 mice, brain 2): 3.62
- ex vivo NIR-II fluorescence (FL) intensity in brain (CTGF [1]; 9-month-old APP/PS1 mice, brain 3): 3.948
- ICP-MS DGC (Au) content per cell (CTGF [2]; DGC-labelled CTX TNA2 cells, replicate 1): 1.359
- ICP-MS DGC (Au) content per cell (CTGF [2]; DGC-labelled CTX TNA2 cells, replicate 2): 1.246
- ICP-MS DGC (Au) content per cell (CTGF [2]; DGC-labelled CTX TNA2 cells, replicate 3): 1.418
- ICP-MS DGC (Au) content per cell (CTGF [2]; DGC-labelled SH-SY5Y cells, replicate 1): 3.579
- ICP-MS DGC (Au) content per cell (CTGF [2]; DGC-labelled SH-SY5Y cells, replicate 2): 3.885
- ICP-MS DGC (Au) content per cell (CTGF [2]; DGC-labelled SH-SY5Y cells, replicate 3): 3.913
- ICP-MS DGC (Au) content per cell (CTGF [2]; DGC-labelled U87MG cells, replicate 1): 9.5834
- ICP-MS DGC (Au) content per cell (CTGF [2]; DGC-labelled U87MG cells, replicate 2): 9.979
- ICP-MS DGC (Au) content per cell (CTGF [2]; DGC-labelled U87MG cells, replicate 3): 9.837
- Cell viability (U87MG cells; 5 μM (Au content), replicate 1): 1.188
- Cell viability (U87MG cells; 5 μM (Au content), replicate 2): 1.205
- Cell viability (U87MG cells; 5 μM (Au content), replicate 3): 1.21
- Cell viability (U87MG cells; 10 μM (Au content), replicate 1): 1.185
- Cell viability (U87MG cells; 10 μM (Au content), replicate 2): 1.16
- Cell viability (U87MG cells; 10 μM (Au content), replicate 3): 1.163
- Cell viability (U87MG cells; 20 μM (Au content), replicate 1): 1.112
- Cell viability (U87MG cells; 20 μM (Au content), replicate 2): 1.134
- Cell viability (U87MG cells; 20 μM (Au content), replicate 3): 1.136
- Cell viability (U87MG cells; 50 μM (Au content), replicate 1): 1.152
- Cell viability (U87MG cells; 50 μM (Au content), replicate 2): 1.117
- Cell viability (U87MG cells; 50 μM (Au content), replicate 3): 1.103
- Cell viability (U87MG cells; 100 μM (Au content), replicate 1): 1.07
- Cell viability (U87MG cells; 100 μM (Au content), replicate 2): 1.085
- Cell viability (U87MG cells; 100 μM (Au content), replicate 3): 1.085
- Cell viability (U87MG cells; 200 μM (Au content), replicate 1): 1.067
- Cell viability (U87MG cells; 200 μM (Au content), replicate 2): 1.053
- Cell viability (U87MG cells; 200 μM (Au content), replicate 3): 1.071
- Cell viability (U87MG cells; 500 μM (Au content), replicate 1): 1.0892
- Cell viability (U87MG cells; 500 μM (Au content), replicate 2): 1.102
- Cell viability (U87MG cells; 500 μM (Au content), replicate 3): 1.058
- cytotoxicity (U87MG cells; DGC incubation 24 h, CCK-8): did not cause any obvious cytotoxicity
- metabolism and excretion route [3]: mainly metabolized by the liver and excreted through the kidney and liver

From article PMC11169542, “A probe for NIR-II imaging and multimodal analysis of early Alzheimer’s disease by targeting CTGF” (Nature Communications, 2024)
